Results: patent US20260070984A1 (Boehringer Ingelheim, published 2026)
Residue numbers refer to the chain shown, from its start. Blank lines part the entries; values can stand above or below the binder they belong to.

Experiments:
[1] = biological target: human PD-1 expressed on cells (human, UniProt Q15116 25-288); test: cell-based or functional assay
[2] = biological target: T1, recombinant human PD-1 (human, UniProt Q15116 25-167, limits assumed); test: SPR, ProteOn XPR36
T1 construct: Soluble recombinant protein used in SPR; also called PDCD1; purified recombinant human PD-1
T1 sequence (Q15116 25-167 limits assumed): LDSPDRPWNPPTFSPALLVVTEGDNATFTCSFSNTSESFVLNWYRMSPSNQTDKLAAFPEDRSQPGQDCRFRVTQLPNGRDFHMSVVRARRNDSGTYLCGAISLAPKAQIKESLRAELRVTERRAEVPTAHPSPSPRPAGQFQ
Protocol: Kinetics and binding affinities were measured using the ProteOn™ XPR36 (Biorad, Hercules, CA) surface plasmon resonance optical biosensor using material generated from transient transfection following single column purification.

human PD-1 expressed on cells, sequence (Q15116 25-288): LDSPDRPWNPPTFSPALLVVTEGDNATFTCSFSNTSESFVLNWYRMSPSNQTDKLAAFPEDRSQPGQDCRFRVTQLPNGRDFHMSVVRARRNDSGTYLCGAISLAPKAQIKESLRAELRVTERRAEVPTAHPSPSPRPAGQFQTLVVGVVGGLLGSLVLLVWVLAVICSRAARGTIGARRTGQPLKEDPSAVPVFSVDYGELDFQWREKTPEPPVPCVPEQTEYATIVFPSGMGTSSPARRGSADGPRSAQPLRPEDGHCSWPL

B1: 502H1 (mouse IgG1 backbone) (antibody, V domains shown)
VH: QVTLKESGPGILQPSQTLSLTCSFSGFSLSTSGMGVTWIRKPSGQGLEWLAHIFWDGDKRYNPSLKSRLTISKDSSSNQVFLMITGVGTADAATYYCARYYYFDYGYAIDYWGQGTSVTVSS
VL: DIVMTQAAFYNPVTLGTSASISCRSSKSLLHRNGITYLYWYLQKPGQSPQLLIYQMSNLASGVPDRFSSSGSGADFTLRISRVEAEDVGVYYCAQNLELPLTFGAGTKLELK
Emax Values (%), inhibition of NFAT activity [1]: 48.9% | IC50 Values (nM), inhibition of NFAT activity [1]: 0.34 nM

B2: Chimeric 306E6 (antibody, V domains shown)
VH: EVQLQQSGPELVKPGSSVKISCKASGYTFTDYYVNWVKQSHGKSLEWFGDIHPNSGDTTYNQKFKDKATLTVDKSSSTAYMELRSLTSEDSAVYYCARRRYDYDGFAYWGQGTLVTVSA
VL: B1 VL with D1E, Y10S, Q55E, A74T, A94G, L99F
notes: Mouse variable domains in human IgG4Pro (Ser228Pro) backbone; also called 306E6 in human IgG4Pro backbone
Kd [2]: 56.4 nM | koff [2]: 0.00765 s⁻¹ | kon [2]: 136000 M⁻¹ s⁻¹

B3: Chimeric 502H1 (antibody, V domains shown)
VH: B1 VH
VL: B1 VL
notes: Mouse variable domains in human IgG4Pro (Ser228Pro) backbone; also called 502H1 in human IgG4Pro backbone
Kd [2]: 6.39 nM | koff [2]: 0.000349 s⁻¹ | kon [2]: 54700 M⁻¹ s⁻¹

B4: Chimeric 307A3 (antibody, V domains shown)
VH: B2 VH with S16A, S55N, D57G, T58I, D66G, T69S
VL: B1 VL with D1E, Y10S, Q55E, S69G, A74T, A94G, L99F
notes: Mouse variable domains in human IgG4Pro (Ser228Pro) backbone; also called 307A3 in human IgG4Pro backbone
Kd [2]: 63.5 nM | koff [2]: 0.0074 s⁻¹ | kon [2]: 116000 M⁻¹ s⁻¹

B7: 701E9 (mouse IgG1 backbone) (antibody, V domains shown)
VH: QVQLQQSGPELVKPGASVKLSCKASGYTFIDYTIHWVKQSPGQGLEWIGWIFPGSTNDTKYNDKFKGKATMTADKSSSTAYMQLSSLTSEDSAVYFCARYRTDFDYWGQGTTLTVSS
VL: DIQMTQSPSSLSASLGERVSLTCRASQEISGYLSWLQQKPDGTIKRLIYAASTLDSGVPKRFSGSRSGSDYSLTISSLESEDFADYYCLQYASYPLTFGAGTKLELK
Emax Values (%), inhibition of NFAT activity [1]: 46% | IC50 Values (nM), inhibition of NFAT activity [1]: 0.22 nM

B10: Chimeric 313C12 (antibody, V domains shown)
VH: EVQLVESGGGLVKPGGSLKLSCAASGFTFSDYGMHWVRQTPEKGLEWIAYINSDSNTIYYADTVKGRFTISRDNARKTLYLQMTSLRSEDTAMYYCSPLVAPDYWGQGTTLTVSS
VL: DIVMTQSQKFMSTTVGDRVSITCKASQNVGTAVAWYQQKPGQSPKLLIYSVSNRYTGVPDRFTGSGSGTDFTLTISNMQSEDLADYFCQQYSSYPFTFGAGTKLELK
notes: Mouse variable domains in human IgG4Pro (Ser228Pro) backbone; also called 313C12 in human IgG4Pro backbone
Kd [2]: 0.859 nM | koff [2]: 5.77e-05 s⁻¹ | kon [2]: 67100 M⁻¹ s⁻¹

B11: Chimeric 414A12 (antibody, V domains shown)
VH: QVQLQQPGAELVKPGASVKLSCKASGHTFTSNWIHWVKQRPGQGLEWIGEIDPSDSYTYYNQKFKGKATLTVDKSSSTAYMQLSSLTSEDSAVYSCACPGRNSNFAYWGQGTTLTVSS
VL: DILMTQSPSSMSVSLGDTVSITCHASQGINNNIGWLQQKPGKSFKGLIYHKSNLEDGVPSRFSGSGSGADYSLTISSLESEDFADYYCVQYAQFPYTFGGGTKLEIK
notes: Mouse variable domains in human IgG4Pro (Ser228Pro) backbone; also called 414A12 in human IgG4Pro backbone
Kd [2]: 1.5 nM | koff [2]: 0.000269 s⁻¹ | kon [2]: 180000 M⁻¹ s⁻¹

B14: 701C1 (mouse IgG1 backbone) (antibody, V domains shown)
VH: EVQLQQSGPELVKPGASVKMSCKASGYTFTSYVIHWVKQKPGQGLEWIGYIDPSNDDTKYNEKFKGKATLTSDKSSSTAYMELSSLTSEDSAVYYCAREAYYGGLYGMDYWGQGTSVTVSS
VL: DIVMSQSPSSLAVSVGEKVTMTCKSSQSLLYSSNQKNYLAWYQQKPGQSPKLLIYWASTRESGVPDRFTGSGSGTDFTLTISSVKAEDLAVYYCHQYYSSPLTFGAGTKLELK
Emax Values (%), inhibition of NFAT activity [1]: 53.2% | IC50 Values (nM), inhibition of NFAT activity [1]: 1.69 nM

Continued, values first:

Kd [2]: 1.85 nM | koff [2]: 0.000149 s⁻¹ | kon [2]: 80700 M⁻¹ s⁻¹
B5: Chimeric 814E10 (antibody, V domains shown)
VH: QIQLQQSGPELVKPGASVKISCKASGYTFTSYYIQWVKQRPGQGLEWIGWIYPGDGTTNYNENFKGKTTLTADKSSSTVYMLLSSLTSEDSAVYFCARYGLVPFDYWGQGTTLTVSS
VL: DIQMTQTTSSLSASLGDRVTISCSASQDIINYLNWYQQKPDGTVKLLIYSTSSLHSGVSLRFSGSGSGTDYSLTISNLEPEDVATYYCHQYSQLPYTFGGGTKLEIK
notes: Mouse variable domains in human IgG4Pro (Ser228Pro) backbone; also called 814E10 in human IgG4Pro backbone

Kd [2]: 8.08 nM | koff [2]: 0.000348 s⁻¹ | kon [2]: 43100 M⁻¹ s⁻¹
B6: Chimeric 708E4 (antibody, V domains shown)
VH: QIQLQQSGPELVKPGASVKISCKASGYTFTDYYLNWVKQRPGHGLEWIGWIYPGSSDTKHNENFKGKATLTVDTYSSTAYMQLGSLTSEDSAVYFCTRYSNFFFDYWGQGTTLTVSS
VL: DIVMTQSQKFLSTSVGDRVRVTCKASQNVVTYVAWYQQKPGQSPKSLIYSASYRYSGVPDRFTGSGSGTYFTLTINNVQFEDLAEYFCQQYHSYPYTFGGGTKLEIK
notes: Mouse variable domains in human IgG4Pro (Ser228Pro) backbone; also called 708E4 in human IgG4Pro backbone

Kd [2]: 1.62 nM | koff [2]: 0.000143 s⁻¹ | kon [2]: 88300 M⁻¹ s⁻¹
B8: Chimeric 701E9 (antibody, V domains shown)
VH: B7 VH
VL: B7 VL
notes: Mouse variable domains in human IgG4Pro (Ser228Pro) backbone; also called 701E9 in human IgG4Pro backbone

Kd [2]: 9.14 nM | koff [2]: 0.000801 s⁻¹ | kon [2]: 87700 M⁻¹ s⁻¹
B9: Chimeric 811G3 (antibody, V domains shown)
VH: QIQLQQSGPEVVKPGASVKISCKASGYTFTDYYINWVKQRPGQGLEWIGWIYPGGGHTKYNEKFKGEATLTVDTSSRTAYMQLSSLTSEDSAVYFCARYSNYYFDFWGHGTTLTVSS
VL: B7 VL with L15P, A50V, S93N, L96Y, A100G, L106I
notes: Mouse variable domains in human IgG4Pro (Ser228Pro) backbone; also called 811G3 in human IgG4Pro backbone

Kd [2]: 5.52 nM | koff [2]: 0.000483 s⁻¹ | kon [2]: 87400 M⁻¹ s⁻¹
B12: Chimeric 709A6 (antibody, V domains shown)
VH: QVTLKESGPGILQPSQTLSLTCSFSGFSLSTSGMGVSWIRQPSGKGLEWLTHIYWDDDKRYNPSLKSRLTISKDTSRNQVFLEITSVDTADTATYFCARSSQGLYSSYDYWGQGTTLTVSS
VL: DIVLTQSPASLAVSLGQRATISCRASESVDIYGISFLHWYQQKPGQPPKHLIYRASNLDSGIPARFSGSGSRTDFTLTINPVETDDVATYYCQQSNKDPLTFGAGTKLELK
notes: Mouse variable domains in human IgG4Pro (Ser228Pro) backbone; also called 709A6 in human IgG4Pro backbone

Kd [2]: 5.02 nM | koff [2]: 0.00053 s⁻¹ | kon [2]: 106000 M⁻¹ s⁻¹
B13: Chimeric 803E6 (antibody, V domains shown)
VH: EVKLVESEGGLVQPGSSMKLSCTASGFTFSDYYMAWVRQVPEKGLEWVANINYDGFNTYYLDSLKSRFIISRDNAKNILYLQMSSLKSEDTATYYCARGGYWSLYFDYWGQGTTLTVSS
VL: DIVMTQSPSSLTVTAGEKVTMSCKSSQSLLHSGNQKNYMTWYQQKPGQPPKLLIYWASTRESGVPDRFTGSGSGTDFTLTISSVQAEDLAVYYCQNDYSYPLTFGAGTKLELK
notes: Mouse variable domains in human IgG4Pro (Ser228Pro) backbone; also called 803E6 in human IgG4Pro backbone

Kd [2]: 13 nM | koff [2]: 0.000305 s⁻¹ | kon [2]: 23400 M⁻¹ s⁻¹
B15: Chimeric 701C1 (antibody, V domains shown)
VH: B14 VH
VL: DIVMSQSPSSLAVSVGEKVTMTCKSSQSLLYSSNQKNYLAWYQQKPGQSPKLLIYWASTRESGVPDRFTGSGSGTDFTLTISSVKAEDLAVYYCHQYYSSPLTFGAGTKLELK
notes: Mouse variable domains in human IgG4Pro (Ser228Pro) backbone; also called 701C1 in human IgG4Pro backbone
